# Measured values from patent publication US11351270B2, “Junctophilin-2 fragments and uses therefor” (University of Iowa Research Foundation, priority 2016, dated 2022).
# Assays:
# [1] = tested on: MEF2C Response Element (MRE) from the desmin enhancer; test: Gel shift assay with MEF2 response element; format: binding; conditions: purified protein
# Excerpt: FIGS. 12A-E. JP2NT represses MEF2-mediated transcription by competing for the MEF2 Response Element (MRE). A) Enrichment of MEF2 binding motifs in ChIP-seq dataset. B) Gel shift assay of JP2NT binding to a desmin promoter-derived DNA sequence containing a WT or mutated MRE in vitro. C) Co-immunoprecipitation of HA-tagged JP2NT binding to MEF2C or Histone H3. D) & E) MEF2 activity assays in 293T cells co-transfected with luciferase under the control of an MRE, MEF2C and WT JP2NT (D) or a mutant lacking the ARR (E, JP2NT^ΔARR). n≥3 independent batches of cells; in each batch of experiments, 3 replicates were performed for each transfection; **p<0.01 vs. Ad-Empty.
# The MEF2 family, master regulators of hypertrophic genes in cardiomyocytes, binds to the A/T enriched consensus sequence (C/TTA(A/T)4TA G/A), which shares the same core sequence with TATA box. Thus, it was hypothesized that JP2NT directly interacts with MEF2 binding sites.
# [2] = tested on: RNA polymerase II (RPB1) and TATA-box binding protein (TBP); test: Crosslinking-reversal co-IP in 293T cells; conditions: JP2NT-transfected 293T cells
# Experimental: Cells were first crosslinked by 1% formaldehyde for 10 minutes at RT before quenching by 0.75 M Tris. After washing with PBS, cells were lysized using RIPA buffer and sonication was applied to breakdown chromatin and shear DNA. Anti-HA resin (sigma) was used to pull down HA tagged protein complexes. The pulled-down protein complexes were boiled at 95° C. for 10 minutes to reverse the formaldehyde induced crosslinking between proteins. Western blot was used to assay the presence of bait and prey proteins.
# TBP specifically binds to TATA boxes, eukaryotic core cis-regulatory elements localized at transcription start site. […] This interaction was abrogated by mutation of the TATA box elements (FIGS. 11E&G and 17B). It was concluded that JP2NT is a DNA binding protein, binding to consensus TATA box represented as TATAA(A/T) or TATATA (FIG. 11F).
# [3] = tested on: pressure overload hypertrophy and heart failure; test: Transaortic banding (TAB) pressure overload in JP2NT-OE mice; format: in vivo, mouse
# Experimental: Animal experiments were performed in accordance with the Guide for the Care and Use of Laboratory Animals (National Institutes of Health publication 85-23, revised 1996) and were approved by the Institutional Animal Care and Use Committee at the University of Iowa. Cardiac specific JP2NT overexpression vector was constructed by subcloning mouse JP2NT cDNA (Guo et al., 2015) into a tet-operated αMHC transgenic vector, as described previously (Guo et al., 2014). The oocyte injection of transgenic vectors was carried out by University of Iowa transgenic core. The injected oocytes were transferred to pseudopregnant recipients. Transgenic offsprings were backcrossed with C57BL/6J mice for >9 generations to generate transgenic mice in a C57BL/6J background. These transgenic mice were crossed with αMHC-tTA (C57 background) (Guo et al., 2014) to generate double transgenic mice (JP2NT-OE) carrying both αMHC-JP2NT and αMHC-tTA. The non-overexpression single transgenic littermates were used as control. PCR was used to determine the genotype of transgenic mice. Nine to 10-wk-old male JP2NT-OE mice and their control littermates were subjected to pressure overload by transaortic banding (TAB) surgery, as described (Guo et al., 2014). Transthoracic echocardiograms were performed with conscious mice in the University of Iowa Cardiology Animal Phenotyping Core Laboratory, using a Vevo 2100 Imager (Visual Sonics), as described previously (Cheng et al., 1993).
# [4] = tested on: cardiac transcription profile; test: RNA-Seq of myocardium of JP2NT-OE mice; format: in vivo, mouse
# Experimental: Illumina TruSeq Stranded mRNA Library Prep Kit was used to prepare the sequencing library for myocardium samples. Sequencing was performed by Illumina HiSeq 2500 platform (2×125 bp paired-end). Kallisto (0.42.5) software (Bray et al., 2016) was used to quantify transcript abundance of mouse transcriptome (Grcm38). Sleuth (0.28.1) software (Pimentel et al., 2018) was used to investigate the differential expression of transcripts between groups (the cutoff of significance was p value<0.01).
# [5] = after TAB, relative to controls
molecule,measurement,setting,value
"JP2NT: shorter form of Junctophilin-2 including the first 565 amino acids of N-terminus of JP2 (protein, UniProt Q9BR39 1-565, looked up, fragment, GST or adenoviral forms, shorter form of Junctophilin-2 including the first 565 amino acids of N-terminus of JP2) MSGGRFDFDDGGAYCGGWEGGKAHGHGLCTGPKGQGEYSGSWNFGFEVAGVYTWPSGNTFEGYWSQGKRHGLGIETKGRWLYKGEWTHGFKGRYGIRQSSSSGAKYEGTWNNGLQDGYGTETYADGGTYQGQFTNGMRHGYGVRQSVPYGMAVVVRSPLRTSLSSLRSEHSNGTVAPDSPASPASDGPALPSPAIPRGGFALSLLANAEAAARAPKGGGLFQRGALLGKLRRAESRTSVGSQRSRVSFLKSDLSSGASDAASTASLGEAAEGADEAAPFEADIDATTTETYMGEWKNDKRSGFGVSERSSGLRYEGEWLDNLRHGYGCTTLPDGHREEGKYRHNVLVKDTKRRMLQLKSNKVRQKVEHSVEGAQRAAAIARQKAEIAASRTSHAKAKAEAAEQAALAANQESNIARTLARELAPDFYQPGPEYQKRRLLQEILENSESLLEPPDRGAGAAGLPQPPRESPQLHERETPRPEGGSPSPAGTPPQPKRPRPGVSKDGLLSPGAWNGEPSGEGSRSVTPSEGAGRRSPARPATERMAIEALQAPPAPSREPEVALYQG",interaction with MEF2C Response Element (MRE),[1],interacts
same,association with RNA polymerase II (RPB1) and TBP,[2],associates
same,cardiac function (ejection fraction),"[3]; 3 weeks after TAB, relative to controls",improved cardiac function
same,pressure overload induced heart failure,[3]; JP2NT OE mice,resistant
same,heart weight/body weight ratio,[3]; [5],lower
same,lung edema (lung weight/body weight ratio),[3]; [5],reduced lung edema
same,cardiac morphology or function at baseline,"[3]; baseline, no TAB",no effect
same,"ERK, TGF-β, CREB and NFκ-B signaling pathways (IPA)",[4]; TAB,predicted inhibition
same,known genes of negatively influenced transcripts,[4]; TAB,481 genes
same,known genes of positively influenced transcripts,[4]; TAB,476 genes
same,transcripts negatively influenced,[4]; TAB,540 transcripts
same,transcripts positively influenced,[4]; TAB,542 transcripts
same,transcripts significantly different in response to cardiac stress,"[4]; TAB, linear regression model, p<0.01",1082 transcripts
same,known genes from which the significantly different transcripts derive,"[4]; TAB, p<0.01",954 genes
same,significantly altered genes (p<0.01) at baseline,"[4]; baseline, relative to control littermates",49 genes
